Assay [1] addresses T1, Aurora-A catalytic domain (CD, 128-403aa), unlabelled, as used in the NMR titration (human, UniProt O14965 128-403).
T1 construct: also called Aurora-A CD; AuroraA Kinase; source: purified
T1 sequence (looked up): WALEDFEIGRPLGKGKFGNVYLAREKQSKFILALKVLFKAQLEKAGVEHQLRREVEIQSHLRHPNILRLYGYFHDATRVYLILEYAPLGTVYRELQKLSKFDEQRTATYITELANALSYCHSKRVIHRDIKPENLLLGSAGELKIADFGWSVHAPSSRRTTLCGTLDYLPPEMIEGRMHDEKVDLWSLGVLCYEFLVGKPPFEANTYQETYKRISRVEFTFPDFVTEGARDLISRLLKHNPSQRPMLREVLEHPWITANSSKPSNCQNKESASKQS
The assay is described as follows: NMR titration; 1H-15N HSQC of labelled Aurora-A IDR (0.1 mM) without and with unlabelled catalytic domain, 1:2 IDR:CD molar ratio; 278 K; 20 mM NaH2PO4, 50 mM NaCl, 2 mM EDTA, 1 mM DTT, pH 6.4. Conditions: both partners purified.

Assay [2] deals with T2, His-hAurora-A-CD (Aurora-A catalytic domain, 122-403aa) (human, UniProt O14965 122-403).
T2 construct: Cloned into pET-28a at the BamHI site; also called His-Aurora-A-CD; hAurora-CD; source: E. coli Rosetta (DE3), purified
T2 sequence (looked up): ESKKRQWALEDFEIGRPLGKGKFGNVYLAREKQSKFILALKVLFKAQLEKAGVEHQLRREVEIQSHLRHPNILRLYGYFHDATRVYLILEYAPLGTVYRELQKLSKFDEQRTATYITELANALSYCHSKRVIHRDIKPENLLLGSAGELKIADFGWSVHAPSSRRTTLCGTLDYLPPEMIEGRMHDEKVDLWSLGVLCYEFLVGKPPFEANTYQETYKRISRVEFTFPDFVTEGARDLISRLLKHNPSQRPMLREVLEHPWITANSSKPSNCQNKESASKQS
Description: pull-down; 5 μg His-hAurora-A-CD with 5 μg GST-BuGZ-N or GST on glutathione-agarose, 200 μL 0.1% PBST (Triton X-100), 4°C, 2 h; Western blot and Coomassie. Conditions: both partners purified. A general note: In western blotting, separated proteins are transferred to a membrane and probed.

B1: Aurora-A IDR (intrinsic disordered region, 1-127aa) (domain or fragment, human, UniProt O14965 1-127, looked up)
chain: MDRSKENCISGPVKATAPVGGPKRVLVTQQFPCQNPLPVNSGQAQRVLCPSNSSQRIPLQAQKLVSSHKPVQNQKQKQLQATSVPHPVSRPLNNTQKSKQPLPSAPENNPEEELASKQKNEESKKRQ
notes: Aurora-A (Aurora kinase A), human, N-terminal intrinsic disordered region; 1-127aa in the NMR text and legend, 1-126aa in the constructs section; The methods list the construct pET-28a-hAurora-IDR as 1-126aa; the NMR results and legend say 1-127aa; Uniformly isotope-labelled for NMR; also called hAurora-IDR; source: E. coli BL21(DE3), isotope-labelled (15N, 13C), purified, His tag removed by TEV …
Take B1: in assay [1], the binding result was “binds”.

B2: GST-BuGZ-N (hBuGZ N-terminus, 1-92aa) (domain or fragment)
chain: not shown
notes: BuGZ (ZNF207), human, N-terminus with the zinc fingers, residues 1-92; Cloned into pGEX-6P-1 at the EcoRI site; also called GST-BuGZ-N-terminus; source: E. coli Rosetta (DE3), purified
Consider B2, for which, in assay [2], the binding result was “binds”.
